Experimental data from patent US20250084186A1 (published 2025).

Experiments:
[1] = molecular target: T1, cynomolgus ENPP3 (cynomolgus, UniProt A0A2K5TKP4 49-874); assay: Biacore; kinetics
T1 chain: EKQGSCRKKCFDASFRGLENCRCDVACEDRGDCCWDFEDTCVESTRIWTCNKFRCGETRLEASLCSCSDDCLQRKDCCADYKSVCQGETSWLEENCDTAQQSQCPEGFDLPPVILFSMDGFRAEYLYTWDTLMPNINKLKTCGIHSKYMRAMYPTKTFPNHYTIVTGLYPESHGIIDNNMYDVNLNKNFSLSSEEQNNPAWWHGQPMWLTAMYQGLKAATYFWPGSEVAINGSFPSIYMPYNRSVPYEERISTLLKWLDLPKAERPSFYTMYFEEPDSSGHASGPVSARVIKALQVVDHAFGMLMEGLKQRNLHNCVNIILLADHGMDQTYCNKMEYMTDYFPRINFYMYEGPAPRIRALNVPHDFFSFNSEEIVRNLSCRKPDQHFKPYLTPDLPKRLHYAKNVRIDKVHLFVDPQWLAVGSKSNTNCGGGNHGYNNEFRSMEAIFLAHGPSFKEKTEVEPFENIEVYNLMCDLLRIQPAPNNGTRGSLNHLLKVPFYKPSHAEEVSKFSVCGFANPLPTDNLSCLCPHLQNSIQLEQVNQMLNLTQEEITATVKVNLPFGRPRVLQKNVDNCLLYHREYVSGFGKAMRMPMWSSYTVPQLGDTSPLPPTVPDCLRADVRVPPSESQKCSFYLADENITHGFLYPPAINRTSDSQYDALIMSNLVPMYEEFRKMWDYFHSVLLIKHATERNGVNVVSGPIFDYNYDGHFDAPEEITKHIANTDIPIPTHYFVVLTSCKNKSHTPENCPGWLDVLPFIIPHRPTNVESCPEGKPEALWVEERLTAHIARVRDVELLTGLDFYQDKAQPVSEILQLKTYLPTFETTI

[2] = molecular target: Human ENPP3; assay: Biacore; kinetics
[3] = molecular target: T1, cynomolgus ENPP3; assay: Biacore; steady state
[4] = molecular target: Human ENPP3; assay: Biacore; steady state
[5] = molecular target: human CD28 (human, UniProt P10747 19-152); assay: -; scFv VHVL, 1+1 Fab-scFv-Fc
[6] = molecular target: Ha16-1(3,5)18[ENPP3]_H1L1; assay: Biacore; kinetics
[7] = molecular target: ENPP3-A[ENPP3]_H1L1; assay: Biacore; kinetics
[8] = molecular target: Ha16-1(3,5)5[ENPP3]_H1L1; assay: Biacore; kinetics
[9] = molecular target: Ha16-1(3,5)18[ENPP3]_H1L1; assay: Biacore; steady state
[10] = molecular target: ENPP3-A[ENPP3]_H1L1; assay: Biacore; steady state
[11] = molecular target: Ha16-1(3,5)5[ENPP3]_H1L1; assay: Biacore; steady state

B1: AN1[ENPP3]_H1_L1.33 (antibody, V domains shown)
VH: EVQLVESGGGLVQPGGSLRLSCAASGFAFSNYGMSWVRQAPGKRLEWVSYISSGGGTTYYLDSVKGRFTISRDNAKNSLYLQMNSLRAEDTAVYYCARHRRVYYGYYFDYWGQGTLVTVSS
VL: DILLTQSPDFQSVTPKEKVTITCRASQSIGTSIHWYQQKPDQSPKLLIEYASESISGIPSRFSGSGSGTDFTLTINSLEAEDAATYYCQQSNSWPYTFGGGTKLEIK
Kd [1]: 1800 nM
Kd [2]: 74 nM
Kd [3]: 1200 nM
Kd [4]: 170 nM

B2: AN1[ENPP3]_H1L1 (antibody, V domains shown)
VH: EVQLVESGGGLVQPGGSLRLSCAASGFAFSNYGMSWVRQAPGKRLEWVSYISSGGGTTYYLDSVKGRFTISRDNAKNSLYLQMNSLRAEDTAVYYCARHRRVYYGYYFDYWGQGTLVTVSS
VL: DILLTQSPDFQSVTPKEKVTITCRASQSIGTSIHWYQQKPDQSPKLLIKYASESISGIPSRFSGSGSGTDFTLTINSLEAEDAATYYCQQSNSWPYTFGGGTKLEIK
Kd [1]: 460 nM
Kd [2]: 9 nM
Kd [3]: 470 nM
Kd [4]: 35 nM

B3: H1.14_L1 (antibody, V domains shown)
VH: EVQLLESGGGLVQPGGSLRLSCAASGFTFSSYAMSWVRQAPGKGLEWVSTISGSGDSTYYADSVKGRFTISRDNSKNTLYLQMNSLRAEDTAVYYCAKSGPGLRQVGFDYWGQGTLVTVSS
VL: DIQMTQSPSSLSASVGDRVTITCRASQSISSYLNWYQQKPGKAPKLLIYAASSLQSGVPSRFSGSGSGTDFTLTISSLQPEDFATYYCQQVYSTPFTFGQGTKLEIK
Kd [5]: 230 nM

B4: H1.1_L1.71 (antibody, V domains shown)
VH: EVQLLESGGGLVQPGGSLRLSCAASGFTFSSYYMSWVRQAPGKGLEWVSTISESGDSTYYADSVKGRFTISRDNSKNTLYLQMNSLRAEDTAVYYCAKSGPGLRQVGFDYWGQGTLVTVSS
VL: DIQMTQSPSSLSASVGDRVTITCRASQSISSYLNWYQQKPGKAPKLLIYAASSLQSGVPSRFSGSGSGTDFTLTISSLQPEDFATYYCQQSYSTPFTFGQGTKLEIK
Kd [5]: 96 nM

B5: H1L1 (antibody, V domains shown)
VH: EVQLLESGGGLVQPGGSLRLSCAASGFTFSSYAMSWVRQAPGKGLEWVSTISGSGDSTYYADSVKGRFTISRDNSKNTLYLQMNSLRAEDTAVYYCAKSGPGLRQVGFDYWGQGTLVTVSS
VL: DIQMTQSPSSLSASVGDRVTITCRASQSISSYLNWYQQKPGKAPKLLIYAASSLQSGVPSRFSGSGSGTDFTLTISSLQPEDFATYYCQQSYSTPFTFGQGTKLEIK
Kd [5]: 1000 nM

B6: H1.1_L1 (antibody, V domains shown)
VH: EVQLLESGGGLVQPGGSLRLSCAASGFTFSSYYMSWVRQAPGKGLEWVSTISGSGDSTYYADSVKGRFTISRDNSKNTLYLQMNSLRAEDTAVYYCAKSGPGLRQVGFDYWGQGTLVTVSS
VL: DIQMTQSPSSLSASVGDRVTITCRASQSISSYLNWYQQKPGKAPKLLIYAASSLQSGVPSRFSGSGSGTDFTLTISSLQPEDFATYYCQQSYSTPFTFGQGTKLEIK
Kd [5]: 600 nM

B7: H1_L1.71 (antibody, V domains shown)
VH: EVQLLESGGGLVQPGGSLRLSCAASGFTFSSYYMSWVRQAPGKGLEWVSTISGSGDSTYYADSVKGRFTISRDNSKNTLYLQMNSLRAEDTAVYYCAKSGPGLRQVGFDYWGQGTLVTVSS
VL: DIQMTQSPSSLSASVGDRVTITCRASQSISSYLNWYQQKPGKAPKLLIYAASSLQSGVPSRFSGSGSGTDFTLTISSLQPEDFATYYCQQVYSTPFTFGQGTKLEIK
Kd [5]: 180 nM

B8: H1.14_L1.71 (antibody, V domains shown)
VH: EVQLLESGGGLVQPGGSLRLSCAASGFTFSSYYMSWVRQAPGKGLEWVSTISESGDSTYYADSVKGRFTISRDNSKNTLYLQMNSLRAEDTAVYYCAKSGPGLRQVGFDYWGQGTLVTVSS
VL: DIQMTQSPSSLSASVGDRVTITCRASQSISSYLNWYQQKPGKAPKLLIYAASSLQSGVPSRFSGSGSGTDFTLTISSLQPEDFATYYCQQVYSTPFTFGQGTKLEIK
Kd [5]: 37 nM

B9: Cyno ENPP3 (enzyme)
chain: EKQGSCRKKCFDASFRGLENCRCDVACEDRGDCCWDFEDTCVESTRIWTCNKFRCGETRLEASLCSCSDDCLQRKDCCADYKSVCQGETSWLEENCDTAQQSQCPEGFDLPPVILFSMDGFRAEYLYTWDTLMPNINKLKTCGIHSKYMRAMYPTKTFPNHYTIVTGLYPESHGIIDNNMYDVNLNKNFSLSSEEQNNPAWWHGQPMWLTAMYQGLKAATYFWPGSEVAINGSFPSIYMPYNRSVPYEERISTLLKWLDLPKAERPSFYTMYFEEPDSSGHASGPVSARVIKALQVVDHAFGMLMEGLKQRNLHNCVNIILLADHGMDQTYCNKMEYMTDYFPRINFYMYEGPAPRIRALNVPHDFFSFNSEEIVRNLSCRKPDQHFKPYLTPDLPKRLHYAKNVRIDKVHLFVDPQWLAVGSKSNTNCGGGNHGYNNEFRSMEAIFLAHGPSFKEKTEVEPFENIEVYNLMCDLLRIQPAPNNGTRGSLNHLLKVPFYKPSHAEEVSKFSVCGFANPLPTDNLSCLCPHLQNSIQLEQVNQMLNLTQEEITATVKVNLPFGRPRVLQKNVDNCLLYHREYVSGFGKAMRMPMWSSYTVPQLGDTSPLPPTVPDCLRADVRVPPSESQKCSFYLADENITHGFLYPPAINRTSDSQYDALIMSNLVPMYEEFRKMWDYFHSVLLIKHATERNGVNVVSGPIFDYNYDGHFDAPEEITKHIANTDIPIPTHYFVVLTSCKNKSHTPENCPGWLDVLPFIIPHRPTNVESCPEGKPEALWVEERLTAHIARVRDVELLTGLDFYQDKAQPVSEILQLKTYLPTFETTI
Kd [6]: 110 nM
Kd [7]: 320 nM
Kd [8]: 21 nM
Kd [9]: 140 nM
Kd [10]: 330 nM
Kd [11]: 70 nM
